T1: His-tagged PRPF31, wild type (human, UniProt Q8WWY3 1-499)
T1 construct: also called WT PRPF31; PRPF31-His; not shown: His tag, C-terminal, kept
T1 sequence (looked up): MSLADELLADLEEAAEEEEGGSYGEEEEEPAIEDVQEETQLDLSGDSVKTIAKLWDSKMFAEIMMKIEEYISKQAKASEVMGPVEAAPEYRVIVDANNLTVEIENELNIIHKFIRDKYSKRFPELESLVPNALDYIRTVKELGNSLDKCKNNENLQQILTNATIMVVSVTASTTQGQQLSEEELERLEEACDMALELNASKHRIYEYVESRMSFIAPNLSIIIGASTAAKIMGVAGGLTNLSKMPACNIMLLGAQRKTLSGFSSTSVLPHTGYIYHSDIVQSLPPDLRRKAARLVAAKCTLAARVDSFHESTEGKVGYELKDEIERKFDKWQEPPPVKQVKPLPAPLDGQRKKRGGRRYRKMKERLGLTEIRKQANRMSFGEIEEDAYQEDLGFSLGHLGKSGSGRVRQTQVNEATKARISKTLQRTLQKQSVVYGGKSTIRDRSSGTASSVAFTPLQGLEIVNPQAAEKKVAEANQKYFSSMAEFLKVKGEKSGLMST

T2: GST-tagged PRPF6 C-terminal HAT-containing domain (PRPF6C, residues 607-941) (human, UniProt O94906 607-941)
T2 construct: PRPF6 (U5-102 kD protein), human, residues 607-941, HAT domains 6-9 according to Pfam analysis; the forward primer printed for PRPF6C is nearly the same as that of PRPF6M; Cloned in pGEX6P-1 via EcoRI and SalI; also called GST-PRPF6C; PRP6F-C; not shown: GST, N-terminal, kept
T2 sequence (looked up): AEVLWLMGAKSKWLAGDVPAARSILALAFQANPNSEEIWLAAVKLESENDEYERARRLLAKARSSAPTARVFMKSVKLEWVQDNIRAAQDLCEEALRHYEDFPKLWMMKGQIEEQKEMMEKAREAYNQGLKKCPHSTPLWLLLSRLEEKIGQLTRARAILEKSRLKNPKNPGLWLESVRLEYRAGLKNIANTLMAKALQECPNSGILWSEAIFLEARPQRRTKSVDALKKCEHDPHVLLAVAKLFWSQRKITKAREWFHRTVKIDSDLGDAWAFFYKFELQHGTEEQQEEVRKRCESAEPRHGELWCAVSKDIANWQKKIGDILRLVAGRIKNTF

B1: GST-tagged PRPF6 middle HAT-containing domain (PRPF6M, residues 307-607) (domain or fragment, human, UniProt O94906 307-607, looked up)
chain: HHPPAWIASARLEEVTGKLQVARNLIMKGTEMCPKSEDVWLEAARLQPGDTAKAVVAQAVRHLPQSVRIYIRAAELETDIRAKKRVLRKALEHVPNSVRLWKAAVELEEPEDARIMLSRAVECCPTSVELWLALARLETYENARKVLNKARENIPTDRHIWITAAKLEEANGNTQMVEKIIDRAITSLRANGVEINREQWIQDAEECDRAGSVATCQAVMRAVIGIGIEEEDRKHTWMEDADSCVAHNALECARAIYAYALQVFPSKKSVWLRAAYFEKNHGTRESLEALLQRAVAHCPKA
notes: PRPF6 (U5-102 kD protein), human, residues 307-607, HAT domains 1-5 according to Pfam analysis; Cloned in pGEX6P-1 via EcoRI and SalI; also called GST-PRPF6M; PRP6F-M; not shown: GST, N-terminal, kept

Assays:
Assay in all cases: pull-down; GST-tagged PRPF6 domain from 100 µl E. coli extract bound to glutathione sepharose beads in PBS, excess removed and beads washed; 0.1 nmol purified His-tagged PRPF31 added in 200 µl, 30 min at 4 °C; three washes with chilled PBS, eluted with reduced glutathione; Western blots with Penta-His and anti-GST antibodies; bands quantified and normalised to WT, four determinations
Settings in all cases: both partners purified
[1] = target: T1, His-tagged PRPF31, wild type
[2] = target: B1
[3] = target: T2, GST-tagged PRPF6 C-terminal …

| binding result [1] | ratio of mutant:WT PRPF31 band in the pull-down [2] | ratio of mutant:WT PRPF31 band in the pull-down [3] | Binder |
| --- | --- | --- | --- |
| binds |  |  | B1 |
|  | 4.2 fold (mutant:WT) | 2.1 fold (mutant:WT) | His-tagged PRPF31 A216P mutant (natural protein, human, UniProt Q8WWY3 1-499, looked up, PRPF31 splicing factor, human, with the RP11 patient missense mutation A216P, cDNA in pTriEx-1; A216P is a disease mutation found in RP11 patients; also called mutant PRPF31; not shown: His tag, C-terminal, kept) MSLADELLADLEEAAEEEEGGSYGEEEEEPAIEDVQEETQLDLSGDSVKTIAKLWDSKMFAEIMMKIEEYISKQAKASEVMGPVEAAPEYRVIVDANNLTVEIENELNIIHKFIRDKYSKRFPELESLVPNALDYIRTVKELGNSLDKCKNNENLQQILTNATIMVVSVTASTTQGQQLSEEELERLEEACDMALELNASKHRIYEYVESRMSFIPPNLSIIIGASTAAKIMGVAGGLTNLSKMPACNIMLLGAQRKTLSGFSSTSVLPHTGYIYHSDIVQSLPPDLRRKAARLVAAKCTLAARVDSFHESTEGKVGYELKDEIERKFDKWQEPPPVKQVKPLPAPLDGQRKKRGGRRYRKMKERLGLTEIRKQANRMSFGEIEEDAYQEDLGFSLGHLGKSGSGRVRQTQVNEATKARISKTLQRTLQKQSVVYGGKSTIRDRSSGTASSVAFTPLQGLEIVNPQAAEKKVAEANQKYFSSMAEFLKVKGEKSGLMST |
